How the values were obtained:
Experiment in all cases: NADH formation at A340
NADH formation at A340 [1] = substrate: O=C[C@H](O)[C@H](O)COP(=O)(O)O; assay type: biochemical, Brumicola nitratireducens; conditions: NAD+ 2 mM, 50 mM PPi buffer pH 8.6, 1 mM DTT, 37 °C
Description: (§1) NADH formation at A340 on […]

NADH formation at A340 [2] = substrate: NC(=O)c1ccc[n+]([C@@H]2O[C@H](COP(=O)(O)OP(=O)(O)OC[C@H]3O[C@@H](n4cnc5c(N)ncnc54)[C@H](O)[C@@H]3O)[C@@H](O)[C@H]2O)c1; assay type: biochemical, Brumicola nitratireducens; conditions: E4P 8 mM, 50 mM PPi buffer pH 8.6, 1 mM DTT, 37 °C, varied: cofactor
Description: as §1

NADH formation at A340 [3] = substrate: O=C[C@H](O)[C@H](O)COP(=O)(O)O; assay type: biochemical, Escherichia coli; conditions: NAD+ 2 mM, 50 mM PPi buffer pH 8.6, 1 mM DTT, 37 °C
Description: (§2) NADH formation at A340 on Eco_Epd

NADH formation at A340 [4] = substrate: NC(=O)c1ccc[n+]([C@@H]2O[C@H](COP(=O)(O)OP(=O)(O)OC[C@H]3O[C@@H](n4cnc5c(N)ncnc54)[C@H](O)[C@@H]3O)[C@@H](O)[C@H]2O)c1; assay type: biochemical, Escherichia coli; conditions: E4P 8 mM, 50 mM PPi buffer pH 8.6, 1 mM DTT, 37 °C, varied: cofactor
Description: as §2

B1: Gni_Epd (Brumicola nitratireducens FR1064) (protein)
chain: MLRIAINGFGRIGRNVLRALYESGRNDQIQVVAINEIASPEGVAHLLKYDTAHGRFKGTVDYTDQCLIVNGDKIPLFQKNNIEELAWSTVNVDIVLECTGVFSSRESAQQHIDNGARKVLFSQPCGQDMDATIVFGVNHKTLKPSDVIVSNGSCTTNCIVPIIQVLDEAFGVESGTITTIHSSMNDQQVIDAYHPDLRRTRAASQSIIPVDTRLHVGIERILPRFAGKFEAIAVRVPTINVTAMDLSVTLRDKVTVSDVNAVLKKSAHGELKRIIDYTEEPLVSVDFNHDPHSSIVDGTQTRVSHKQLVKTLVWCDNEWGFANRMLDTALHMHQLDS
In the case of B1, the Km (NADH formation at A340 [1]) is reported as 737 µM, the kcat (NADH formation at A340 [1]) is reported as 0.323 s⁻¹ and the kcat/Km (NADH formation at A340 [1]) is reported as 438 M⁻¹ s⁻¹. It also gave a Km (NADH formation at A340 [2]) of 51 µM, a kcat (NADH formation at A340 [2]) of 0.313 s⁻¹ and a kcat/Km (NADH formation at A340 [2]) of 6140 M⁻¹ s⁻¹.

B2: Eco_Epd (Escherichia coli K-12) (protein)
chain: TVRVAINGFGRIGRNVVRALYESGRRAEITVVAINELADAAGMAHLLKYDTSHGRFAWEVRQERDQLFVGDDAIRVLHERSLQSLPWRELGVDVVLDCTGVYGSREHGEAHIAAGAKKVLFSHPGSNDLDATVVYGVNQDQLRAEHRIVSNASCTTNCIIPVIKLLDDAYGIESGTVTTIHSAMHDQQVIDAYHPDLRRTRAASQSIIPVDTKLAAGITRFFPQFNDRFEAIAVRVPTINVTAIDLSVTVKKPVKANEVNLLLQKAAQGAFHGIVDYTELPLVSVDFNHDPHSAIVDGTQTRVSGAHLIKTLVWCDNEWGFANRMLDTTLAMATVAFR
B2 gave a Km (NADH formation at A340 [3]) of 969 µM, a kcat (NADH formation at A340 [3]) of 0.15 s⁻¹ and a kcat/Km (NADH formation at A340 [3]) of 155 M⁻¹ s⁻¹. For the same protein, the Km (NADH formation at A340 [4]) was 717 µM, the kcat (NADH formation at A340 [4]) was 3.23 s⁻¹ and the kcat/Km (NADH formation at A340 [4]) was 4510 M⁻¹ s⁻¹.

From publication PMC10471632, “Protein engineering and iterative multimodule optimization for vitamin B6 production in Escherichia coli” (Nature Communications, 2023)
